Experiments:
[1] = target: H-ferritin receptors (binding sites) on bovine retinal endothelial cells (BREC cell homogenate); test: saturation binding of 125I-H-ferritin to BREC homogenate, one-site global fit
[2] = target: H-ferritin receptors (binding sites) on rat brain microvasculature (isolated microvessels); test: saturation binding of 125I-H-ferritin to rat brain microvessels, one-site global fit
[3] = target: H-ferritin receptors (binding sites) on bovine retinal endothelial cells (BREC cell homogenate); test: homologous competition: unlabelled H-ferritin against 0.4 nM 125I-H-ferritin on BREC homogenate, one-site competition fit

recombinant human H-ferritin (His tagged, expressed in E. coli, nickel column purified) (from UniProt P02794 1-183) (ligand)
Bmax (fmol/mg protein) [1]: 466 | Kd [1]: 2.7 nM | Bmax (fmol/mg protein) [2]: 573 | Kd [2]: 7.9 nM | Kd [3]: 2 nM
